Test results as given in patent publication US20060035359A1 (BURNHAM INSTITUTE, published 2006).
Values belong to the molecule of their own block, whether it stands above or below them.

Columns and labels:
[1] = biological target: His-CKS1 (UniProt P61024)
[2] = biological target: T1, fusion protein of the B42 trans-activation domain fused to pro-caspase-9 (UniProt P55211 1-416); assay: yeast two-hybrid, LEU2 growth and beta-galactosidase filter assay
T1 sequence (looked up): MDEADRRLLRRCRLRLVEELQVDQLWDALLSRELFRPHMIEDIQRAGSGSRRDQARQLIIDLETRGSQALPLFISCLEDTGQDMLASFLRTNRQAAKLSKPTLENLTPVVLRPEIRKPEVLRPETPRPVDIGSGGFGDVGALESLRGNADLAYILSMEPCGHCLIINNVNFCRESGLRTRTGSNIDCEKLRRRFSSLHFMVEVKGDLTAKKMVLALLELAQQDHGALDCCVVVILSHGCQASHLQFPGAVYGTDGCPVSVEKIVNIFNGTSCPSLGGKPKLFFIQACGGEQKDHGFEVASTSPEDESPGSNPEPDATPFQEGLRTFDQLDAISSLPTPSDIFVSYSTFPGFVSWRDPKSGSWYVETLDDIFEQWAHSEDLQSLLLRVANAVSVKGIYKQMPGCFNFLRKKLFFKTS
Protocol: (§1) A plasmid (1 μg DNA) encoding a fusion protein of the LexA DNA-binding domain appended to the N-terminus of SBP1 was co-transformed into yeast strain EGY48 with […] of pJG4-5 plasmid encoding fusion proteins of the B42 trans-activation domain fused to Survivin, Survivin T34E, Bcl-2, pro-caspase-9, XIAP, Bax, or Apaf-1. Bcl-2, pro-caspase-9, XIAP, Bax, and Apaf-1 are other […]. […] Only the Survivin T34E scored positive for leucine and β-galactosidase activity, wild type Survivin, Bcl-2, caspase-9, XIAP, Bax and Apaf-1 scored negative under the conditions.

[3] = biological target: fusion protein of the B42 trans-activation domain fused to XIAP (UniProt P98170 1-497); assay: as above
Protocol: as §1

[4] = biological target: T2, fusion protein of the B42 trans-activation domain fused to Apaf-1 (UniProt O14727 1-1248); assay: as above
T2 sequence (looked up): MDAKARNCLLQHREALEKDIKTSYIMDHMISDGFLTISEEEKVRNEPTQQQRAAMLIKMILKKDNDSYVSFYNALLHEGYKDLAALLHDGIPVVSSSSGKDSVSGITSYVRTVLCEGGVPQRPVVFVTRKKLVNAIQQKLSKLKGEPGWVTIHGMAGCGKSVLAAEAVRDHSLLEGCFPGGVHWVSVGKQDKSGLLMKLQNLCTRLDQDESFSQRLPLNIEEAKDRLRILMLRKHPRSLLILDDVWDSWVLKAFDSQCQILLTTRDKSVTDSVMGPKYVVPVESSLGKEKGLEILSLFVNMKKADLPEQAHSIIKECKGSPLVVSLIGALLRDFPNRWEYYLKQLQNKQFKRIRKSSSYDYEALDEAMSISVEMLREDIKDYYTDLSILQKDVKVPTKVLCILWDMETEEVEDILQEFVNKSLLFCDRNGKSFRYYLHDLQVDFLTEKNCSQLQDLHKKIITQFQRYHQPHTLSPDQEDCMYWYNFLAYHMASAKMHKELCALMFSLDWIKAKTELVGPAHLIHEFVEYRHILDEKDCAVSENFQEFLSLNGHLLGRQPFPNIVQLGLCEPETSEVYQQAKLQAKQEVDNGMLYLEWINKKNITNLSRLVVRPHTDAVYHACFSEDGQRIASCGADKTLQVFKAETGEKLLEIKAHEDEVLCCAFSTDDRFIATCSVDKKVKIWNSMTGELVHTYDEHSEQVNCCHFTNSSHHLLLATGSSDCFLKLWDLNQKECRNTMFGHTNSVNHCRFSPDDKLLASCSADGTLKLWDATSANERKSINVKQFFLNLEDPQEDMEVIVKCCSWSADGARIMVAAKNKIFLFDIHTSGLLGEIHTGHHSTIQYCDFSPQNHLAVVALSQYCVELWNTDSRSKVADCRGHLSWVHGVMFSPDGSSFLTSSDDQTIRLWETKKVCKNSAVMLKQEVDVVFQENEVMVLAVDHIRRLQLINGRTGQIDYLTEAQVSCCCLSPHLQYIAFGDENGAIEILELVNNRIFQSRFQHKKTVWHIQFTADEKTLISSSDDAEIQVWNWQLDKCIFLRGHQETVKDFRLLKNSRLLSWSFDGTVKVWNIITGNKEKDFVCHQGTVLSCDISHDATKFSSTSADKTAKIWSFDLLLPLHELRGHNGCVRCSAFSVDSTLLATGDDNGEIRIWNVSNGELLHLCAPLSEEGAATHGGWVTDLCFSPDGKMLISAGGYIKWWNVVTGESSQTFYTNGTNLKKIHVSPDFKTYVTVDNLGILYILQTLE
Protocol: as §1

[5] = biological target: T3, 35S-labeled in vitro translated (IVT) SBP1 protein (human, UniProt Q8N5L8 1-163, 35S label); assay: GST pull-down of 35S-labeled IVT SBP1, SDS-PAGE and fluorography
T3 construct: Translated in reticulocyte lysate from the full-length SBP1 cDNA; The two differ only at the C-terminal residues; also called full-length SBP1; human SBP1
T3 sequence: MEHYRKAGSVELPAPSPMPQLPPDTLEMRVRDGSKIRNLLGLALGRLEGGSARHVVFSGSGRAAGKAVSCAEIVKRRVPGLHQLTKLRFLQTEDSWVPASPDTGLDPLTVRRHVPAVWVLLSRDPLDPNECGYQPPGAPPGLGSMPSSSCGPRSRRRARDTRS
Protocol: cDNAs encoding wild type Survivin or Survivin T34E was cloned into the EcoRI and XhoI sites of pGEX-4T-1 (Amersham-Pharmacia, Sweden), expressed in XL-1-blue cells (Stratagene, Inc., La Jolla, Calif.), and affinity-purified using glutathione-Sepharose, using methods essentially as described in (Xie et al., 1998, Biochemistry, 37:6410-6418). A GST-CD40 fusion protein was included as a negative control. Purified GST-fusion proteins (0.5-1.0 μg immobilized on 10-20 μl of glutathione beads) and 2.5 μl of […] reticulocyte lysates (TNT-Lysates; Promega, Inc., Madison, Wis.) containing ³⁵S-labeled in vitro translated (IVT) SBP1 protein were incubated in […] of HKMEN (10 mM HEPES [pH 7.2], 142 mM KCl, 5 mM MgCl₂, 2 mM EGTA, 0.1% NP-40) at 4° C. for 30 minutes. The beads were washed 3× with 1 ml HKMEN solution to remove unbound ³⁵S-labeled IVT SBP1 protein, followed by boiling in 25 μl of Laemmli-SDS sample buffer to release and denature SBP1 bound to the matrix-bound GST-fusion protein. The eluted proteins were analyzed by SDS-PAGE (12%) and detected by fluorography.

Sequence of His-CKS1 (P61024 whole entry, looked up, the tested form may be a part): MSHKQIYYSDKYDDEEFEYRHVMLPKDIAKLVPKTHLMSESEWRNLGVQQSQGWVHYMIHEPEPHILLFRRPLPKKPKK
Sequence of fusion protein of the B42 trans-activation domain fused to XIAP (P98170 whole entry, the tested form may be a part): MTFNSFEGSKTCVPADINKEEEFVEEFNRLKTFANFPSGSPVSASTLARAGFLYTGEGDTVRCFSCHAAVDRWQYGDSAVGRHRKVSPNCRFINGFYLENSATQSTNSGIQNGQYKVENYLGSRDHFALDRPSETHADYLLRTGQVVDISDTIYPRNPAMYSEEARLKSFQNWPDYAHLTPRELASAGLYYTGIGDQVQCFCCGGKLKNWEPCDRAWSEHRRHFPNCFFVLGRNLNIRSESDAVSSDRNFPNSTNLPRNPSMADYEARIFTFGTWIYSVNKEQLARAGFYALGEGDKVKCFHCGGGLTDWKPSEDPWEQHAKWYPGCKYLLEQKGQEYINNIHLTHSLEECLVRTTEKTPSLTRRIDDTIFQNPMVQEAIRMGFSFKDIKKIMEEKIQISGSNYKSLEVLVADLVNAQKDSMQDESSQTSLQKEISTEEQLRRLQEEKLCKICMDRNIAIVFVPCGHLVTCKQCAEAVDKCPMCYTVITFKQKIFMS

Molecule: immunoprecipitated cyclin B1/cdc2
histone H1 phosphorylation [1]: is phosphorylated in the added presence of His-Cks 1

binding result [2]: no binding
binding result [3]: no binding
binding result [4]: no binding
B1: fusion protein of the LexA DNA-binding domain appended to the N-terminus of SBP1 (other)
chain: MKALTARQQEVFDLIRDHISQTGMPPTRAEIAQRLGFRSPNAAEEHLKALARKGVIEIVSGASRGIRLLQEEEEGLPLVGRVAAGEPLLAQQHIEGHYQVDPSLFKPNADFLLRVSGMSMKDIGIMDGDLLAVHKTQDVRNGQVVVARIDDEVTVKRLKKQGNKVELLPENSEFKPIVVDLRQQSFTIEGLAVGVIRNGDWLMEHYRKAGSVELPAPSPMPQLPPDTLEMRVRDGSKIRNLLGLALGRLEGGSARHVVFSGSGRAAGKAVSCAEIVKRRVPGLHQLTKLRFLQTEDSWVPASPDTGLDPLTVRRHVPAVWVLLSRDPLDPNECGYQPPGAPPGLGSMPSSSCGPRSRRRARDTRS
notes: Yeast two-hybrid construct expressed in yeast strain EGY48

binding result [5]: no binding
B2: GST-CD40 cytosolic domain protein (other, UniProt P25942 216-277, looked up)
chain: KKVAKKPTNKAPHPKQEPQEINFPDDLPGSNTAAPVQETLHGCQPVTQEDGKESRISVQERQ
notes: domain: cytosolic domain; Negative control; also called GST-CD40 fusion protein; not shown: glutathione S-transferase (GST) fusion partner
